Reference: doi:10.1101/2020.08.07.234443 (bioRxiv, 2020)

T1: eIF4G1_(1-249) (S. cerevisiae, UniProt P39935 1-249)
T1 sequence (looked up): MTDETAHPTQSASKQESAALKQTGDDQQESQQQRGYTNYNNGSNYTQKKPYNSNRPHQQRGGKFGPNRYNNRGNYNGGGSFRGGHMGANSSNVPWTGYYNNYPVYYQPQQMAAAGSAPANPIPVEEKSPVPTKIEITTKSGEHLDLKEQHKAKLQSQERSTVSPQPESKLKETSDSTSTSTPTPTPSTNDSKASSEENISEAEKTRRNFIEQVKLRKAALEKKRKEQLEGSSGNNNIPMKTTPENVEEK


How the values were obtained:
SAXS = target: the molecule itself; assay: SAXS
eIF4G1_(1-249) = target: T1, eIF4G1_(1-249); assay: NMR intermolecular paramagnetic relaxation enhancement

binding result (eIF4G1_(1-249))	Binder	stoichiometry N (SAXS)
–	Pab1 RRM12 (domain or fragment) not shown	2
binds	spin-labeled eIF4G1_(1-249) Q109C (domain or fragment, S. cerevisiae, UniProt P39935 1-249, looked up, 4-(2-iodoacetamido)-TEMPO nitroxyl spin label on C109) MTDETAHPTQSASKQESAALKQTGDDQQESQQQRGYTNYNNGSNYTQKKPYNSNRPHQQRGGKFGPNRYNNRGNYNGGGSFRGGHMGANSSNVPWTGYYNNYPVYYQPCQMAAAGSAPANPIPVEEKSPVPTKIEITTKSGEHLDLKEQHKAKLQSQERSTVSPQPESKLKETSDSTSTSTPTPTPSTNDSKASSEENISEAEKTRRNFIEQVKLRKAALEKKRKEQLEGSSGNNNIPMKTTPENVEEK	–
